From article PMC10681800, “Structural and functional investigation of GajB protein in Gabija anti-phage defense” (Nucleic Acids Research, 2023)
Where “and” joins values, the source holds several entries; their conditions need not be identical. Equal entries are not always repeated.

T1: GajA;GajB (Bacillus cereus VD045;Bacillus cereus …, UniProt J8H9C1;J8HQ06 1-578;1-494, |)
T1 sequence 1: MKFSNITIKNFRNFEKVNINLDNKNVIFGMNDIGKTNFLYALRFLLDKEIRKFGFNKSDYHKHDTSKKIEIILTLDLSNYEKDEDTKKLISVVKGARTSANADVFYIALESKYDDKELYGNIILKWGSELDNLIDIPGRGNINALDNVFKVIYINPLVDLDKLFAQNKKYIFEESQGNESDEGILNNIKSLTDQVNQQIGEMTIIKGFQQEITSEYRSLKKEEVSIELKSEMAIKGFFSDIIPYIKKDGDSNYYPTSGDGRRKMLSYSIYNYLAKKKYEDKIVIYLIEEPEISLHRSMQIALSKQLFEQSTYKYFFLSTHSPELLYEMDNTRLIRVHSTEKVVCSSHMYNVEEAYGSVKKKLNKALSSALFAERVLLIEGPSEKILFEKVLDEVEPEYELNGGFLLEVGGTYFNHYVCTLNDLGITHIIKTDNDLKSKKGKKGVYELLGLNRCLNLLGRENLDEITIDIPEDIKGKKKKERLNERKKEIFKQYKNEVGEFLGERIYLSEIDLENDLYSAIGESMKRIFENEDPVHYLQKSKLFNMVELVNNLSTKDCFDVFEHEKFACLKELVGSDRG
T1 sequence 2: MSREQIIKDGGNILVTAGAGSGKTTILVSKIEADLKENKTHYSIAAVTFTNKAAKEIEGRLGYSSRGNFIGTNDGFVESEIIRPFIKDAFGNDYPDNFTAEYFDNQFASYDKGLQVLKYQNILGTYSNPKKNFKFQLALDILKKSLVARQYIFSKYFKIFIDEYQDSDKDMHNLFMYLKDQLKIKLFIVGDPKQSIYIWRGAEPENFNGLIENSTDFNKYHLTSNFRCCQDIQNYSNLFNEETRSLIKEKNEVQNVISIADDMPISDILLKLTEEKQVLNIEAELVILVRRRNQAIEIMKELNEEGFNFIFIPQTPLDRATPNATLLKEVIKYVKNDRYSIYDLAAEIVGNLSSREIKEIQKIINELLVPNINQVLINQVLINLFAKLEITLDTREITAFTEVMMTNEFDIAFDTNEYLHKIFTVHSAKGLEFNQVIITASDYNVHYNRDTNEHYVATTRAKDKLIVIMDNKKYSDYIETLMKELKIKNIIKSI

T2: GajB (Bacillus cereus VD045, UniProt J8HQ06 1-494)
T2 sequence: T1 sequence 2

T3: UvrD (Escherichia coli DH5alpha, UniProt P03018 1-720)
T3 sequence: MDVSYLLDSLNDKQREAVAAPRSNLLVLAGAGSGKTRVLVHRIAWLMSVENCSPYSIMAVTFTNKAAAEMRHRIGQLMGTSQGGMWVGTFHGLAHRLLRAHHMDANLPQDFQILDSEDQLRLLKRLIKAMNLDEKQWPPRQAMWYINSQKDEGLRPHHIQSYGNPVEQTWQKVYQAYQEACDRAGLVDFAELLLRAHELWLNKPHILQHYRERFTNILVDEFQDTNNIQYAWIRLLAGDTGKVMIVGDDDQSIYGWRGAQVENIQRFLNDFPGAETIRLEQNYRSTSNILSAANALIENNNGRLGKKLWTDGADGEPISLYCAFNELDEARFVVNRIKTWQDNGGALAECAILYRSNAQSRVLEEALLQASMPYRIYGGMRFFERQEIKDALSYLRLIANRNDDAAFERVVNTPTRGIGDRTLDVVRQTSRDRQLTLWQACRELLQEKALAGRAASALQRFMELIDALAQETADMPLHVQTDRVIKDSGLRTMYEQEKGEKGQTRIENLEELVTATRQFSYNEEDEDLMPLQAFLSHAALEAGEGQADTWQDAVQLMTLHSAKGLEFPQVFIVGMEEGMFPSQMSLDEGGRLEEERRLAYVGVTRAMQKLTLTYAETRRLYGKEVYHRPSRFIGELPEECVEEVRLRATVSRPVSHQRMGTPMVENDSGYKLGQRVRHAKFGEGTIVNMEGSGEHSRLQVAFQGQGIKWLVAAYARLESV

T4: GajB of the Gabija anti-phage defense system of Bacillus cereus VD045, purified on its own, (His)6-MBP tag … (Bacillus cereus VD045, UniProt J8HQ06 1-494)
T4 chain: T1 sequence 2

B1: 3'-tailed dsDNA (dsDNA)
DNA 1: TCGGTACGACCTGCGAGCACTGCTT
DNA 2: AAGCAGTGCTCGCAGGTCGTACCGATTTTTTTTTTTTTTT
B2: GajB of the Gabija anti-phage defense system of Bacillus cereus VD045, purified on its own, (His)6-MBP tag cleaved by TEV protease (natural protein)
chain: T1 sequence 2
notes: GajB, Bacillus cereus VD045, synthetic gene in pET28a with (His)6-MBP and a TEV site; 57.1 kDa as printed; the subdomains of the crystal structure span residues 1-494; the shorter of the two GajB forms that the discussion tells of (the long form has five more N-terminal residues); Monomer by SEC-MALS and analytical SEC; also called individually purified GajB; separately purified GajB; source: E. …
B3: GajA of the Gabija anti-phage defense system of Bacillus cereus VD045, with a C-terminal (His)6 tag, purified on its own (enzyme, UniProt J8H9C1 1-578, looked up)
chain: T1 sequence 1
notes: GajA, Bacillus cereus VD045, synthetic gene in pET21a; 67.0 kDa as printed; Tetramer by SEC-MALS and analytical SEC; also called individually purified GajA; separately purified GajA; source: E. coli BL21(DE3), purified (HisTrap HP, SEC Superdex 200)

How the values were obtained:
GajA;GajB = biological target: T1, GajA;GajB; assay: EMSA; 10 uM protein, 5 uM DNA, 5 mM Mg2+, no ATP; EMSA: 5 mM MgCl2, 1 mM DTT, 0.75 uM BSA, 20 mM Tris-HCl pH 7.5, 25 C, 90 min; 2% agarose gel, ethidium bromide; settings: protein: recombinant;recombinant; chain copies: 4;4; label: fluorescein on the 25-mer in helicase assay; 25 bp duplex, 3' overhang 15 nt (T15) on strand 2
GajB = biological target: T2, GajB; assay: as above; settings: protein: recombinant; tags: N-terminal His6-MBP removed with TEV protease; label: fluorescein on the 25-mer in helicase assay; 25 bp duplex, 3' overhang 15 nt (T15) on strand 2
UvrD = biological target: T3, UvrD; assay: as above; settings: protein: recombinant; tags: N-terminal His6-MBP removed with TEV protease (as for GajB); label: fluorescein on the 25-mer in helicase assay; 25 bp duplex, 3' overhang 15 nt (T15) on strand 2
[1] = biological target: B3; assay: ITC; 4°C; 20 μM GajB in the cell titrated with 20 injections of 2 μl of 200 μM GajA; 300 mM NaCl, 1 mM TCEP, 10% glycerol, 20 mM HEPES pH 7.5; triplicate; settings: both partners purified
[2] = biological target: B3; assay: SEC-MALS; GajA pre-incubated with an excess of GajB (molar ratio 4:8); Superdex 200 Increase 10/300 GL, 300 mM NaCl, 2 mM DTT, 5% glycerol, 20 mM HEPES pH 7.5, 25 °C; settings: both partners purified
[3] = biological target: B3; assay: SEC; analytical SEC, Superdex 200 10/300 GL; 300 mM NaCl, 2 mM DTT, 5% glycerol, 20 mM HEPES pH 7.5; samples 20 μM each, incubated at 4°C for 1 h before loading; also GajA pre-incubated with increasing amounts of GajB; settings: both partners purified
[4] = biological target: T4, GajB of the Gabija anti-phage defense …; assay: ITC
[5] = biological target: B2; assay: ITC; 4°C; 20 μM GajB in the cell titrated with 20 injections of 2 μl of 200 μM GajA; 300 mM NaCl, 1 mM TCEP, 10% glycerol, 20 mM HEPES pH 7.5; triplicate; settings: both partners purified
[6] = biological target: the molecule itself; assay: SEC-MALS + SEC; each protein alone; Superdex 200 Increase 10/300 GL with miniDAWN/Optilab, 300 mM NaCl, 2 mM DTT, 5% glycerol, 20 mM HEPES pH 7.5, 20 μM, 25 °C; analytical SEC in the same buffer

B1: no binding (GajA;GajB); no binding (GajB); binds (UvrD).

With B2 the Kd [1] was ~46.4 nM, the “stoichiometry N” value [2] was 4 GajB monomers per GajA tetramer (4:4) and the “stoichiometry N” value [3] was 4 GajB monomers per GajA tetramer.

With B3 the Kd [4] was 54.3 nM and 36.9 nM, the “stoichiometry N” value [5] was ~1 and the “stoichiometry N” value [6] was 4.
